# Measurements: patent US20190375824A1 (PANASONIC INTELLECTUAL PROPERTY MANAGEMENT, published 2019)
# Biological target: T1, human serum albumin (human, UniProt P02768 25-609)
# T1 construct: Antigen in the SPR assay
# Test: SPR
# Protocol: The binding affinity of the provided VHH antibodies to human serum albumin was measured with surface plasmon resonance.
Binder,Kd [nM],koff [s⁻¹],kon [M⁻¹ s⁻¹]
"VHH antibody of SEQ ID NO: 1 (VHH, Isolated from a phage library; also called WT VHH) VHH: QVQLVESGGGLVQAGDSLRLSCAASGRTFSGYAMGWFRQAPGKEREFVARINWSGTLTYYADSVKGRFTGSRDNAKNTVYLQMNSLKPEDTAVYYCAQRGDSGSNYDPSGYSYWGQGTQVTVSS",261,0.371,1.42e+06
"VHH antibody in which glycine in position 36 of SEQ ID NO: 1 was substituted (SEQ ID NO: 3) (VHH, Text says asparagine at IMGT 36; Expressed in E. coli; also called G36D mutant) VHH: QVQLVESGGGLVQAGDSLRLSCAASGRTFSDYAMGWFRQAPGKEREFVARINWSGTLTYYADSVKGRFTGSRDNAKNTVYLQMNSLKPEDTAVYYCAQRGDSGSNYDPSGYSYWGQGTQVTVSS",61.4,0.125,2.04e+06
"VHH antibody in which serine in position 116 of SEQ ID NO: 1 was substituted with arginine (SEQ ID NO: 6) (VHH, Expressed in E. coli; also called S116R mutant) VHH: QVQLVESGGGLVQAGDSLRLSCAASGRTFSGYAMGWFRQAPGKEREFVARINWSGTLTYYADSVKGRFTGSRDNAKNTVYLQMNSLKPEDTAVYYCAQRGDSGSNYDPSGYRYWGQGTQVTVSS",35.6,0.591,1.66e+07
"VHH antibody in which arginine in position 50 of SEQ ID NO: 1 was substituted (SEQ ID NO: 4) (VHH, Text says asparagine at IMGT 50; Expressed in E. coli; also called R50L mutant) VHH: QVQLVESGGGLVQAGDSLRLSCAASGRTFSGYAMGWFRQAPGKELEFVARINWSGTLTYYADSVKGRFTGSRDNAKNTVYLQMNSLKPEDTAVYYCAQRGDSGSNYDPSGYSYWGQGTQVTVSS",157,0.303,1.93e+06
"VHH antibody in which glycine in position 36, arginine in position 50, and serine in position 116 of SEQ ID NO: 1 were substituted (SEQ ID NO: 9) (VHH, Text says asparagine at IMGT 36; also called G36D/R50L/S116R mutant) VHH: QVQLVESGGGLVQAGDSLRLSCAASGRTFSDYAMGWFRQAPGKELEFVARINWSGTLTYYADSVKGRFTGSRDNAKNTVYLQMNSLKPEDTAVYYCAQRGDSGSNYDPSGYRYWGQGTQVTVSS",77.9,0.0879,1.13e+06
"VHH antibody in which glycine in position 36, glycine in position 78, and serine in position 116 of SEQ ID NO: 1 were substituted (SEQ ID NO: 10) (VHH, Text says asparagine at IMGT 36; also called G36D/G78A/S116R mutant) VHH: QVQLVESGGGLVQAGDSLRLSCAASGRTFSDYAMGWFRQAPGKEREFVARINWSGTLTYYADSVKGRFTASRDNAKNTVYLQMNSLKPEDTAVYYCAQRGDSGSNYDPSGYRYWGQGTQVTVSS",365,0.411,1.13e+06
"VHH antibody in which glycine in position 78 of SEQ ID NO: 1 was substituted with alanine (SEQ ID NO: 5) (VHH, Expressed in E. coli; also called G78A mutant) VHH: QVQLVESGGGLVQAGDSLRLSCAASGRTFSGYAMGWFRQAPGKEREFVARINWSGTLTYYADSVKGRFTASRDNAKNTVYLQMNSLKPEDTAVYYCAQRGDSGSNYDPSGYSYWGQGTQVTVSS",13200,0.806,61200
"VHH antibody in which glycine in position 36, arginine in position 50, glycine in position 78, and serine in position 116 of SEQ ID NO: 1 were substituted (SEQ … (VHH, Text says asparagine at IMGT 36; also called G36D/R50L/G78A/S116R mutant) VHH: QVQLVESGGGLVQAGDSLRLSCAASGRTFSDYAMGWFRQAPGKELEFVARINWSGTLTYYADSVKGRFTASRDNAKNTVYLQMNSLKPEDTAVYYCAQRGDSGSNYDPSGYRYWGQGTQVTVSS",380,0.355,933000
"VHH antibody in which glycine in position 36 and serine in position 116 of SEQ ID NO: 1 were substituted (SEQ ID NO: 7) (VHH, Text says asparagine at IMGT 36; also called G36D/S116R mutant) VHH: QVQLVESGGGLVQAGDSLRLSCAASGRTFSDYAMGWFRQAPGKEREFVARINWSGTLTYYADSVKGRFTGSRDNAKNTVYLQMNSLKPEDTAVYYCAQRGDSGSNYDPSGYRYWGQGTQVTVSS",44.7,0.0643,1.44e+06
